Molecular target: T1, cata_human CAT (UniProt P04040)
T1 sequence: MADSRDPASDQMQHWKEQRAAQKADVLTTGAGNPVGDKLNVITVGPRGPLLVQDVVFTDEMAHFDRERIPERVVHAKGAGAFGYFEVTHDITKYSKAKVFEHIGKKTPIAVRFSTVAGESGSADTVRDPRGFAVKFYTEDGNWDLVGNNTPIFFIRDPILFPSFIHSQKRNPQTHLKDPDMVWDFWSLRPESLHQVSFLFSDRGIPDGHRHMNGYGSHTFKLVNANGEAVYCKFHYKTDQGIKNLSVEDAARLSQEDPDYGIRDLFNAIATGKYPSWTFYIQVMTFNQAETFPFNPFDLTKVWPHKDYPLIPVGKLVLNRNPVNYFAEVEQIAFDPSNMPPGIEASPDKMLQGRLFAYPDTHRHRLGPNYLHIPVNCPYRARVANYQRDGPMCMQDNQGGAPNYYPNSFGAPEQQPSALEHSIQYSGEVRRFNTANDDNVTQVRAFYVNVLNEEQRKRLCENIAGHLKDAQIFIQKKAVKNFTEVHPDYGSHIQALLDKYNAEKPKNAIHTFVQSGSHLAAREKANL

Ras-related protein Rab-14 (Homo sapiens) (from UniProt P61106) Q70N
effect of a mutation on the interaction: increasing interaction

Source: IntAct's records for PubMed 23333653
